From US20120308522A1

B1: recombinant placenta growth factor (P1GF) (ligand, UniProt P49763-2 21-149, looked up)
chain: AVPPQQWALSAGNGSSEVEVVPFQEVWGRSYCRALERLVDVVSEYPSEVEHMFSPSCVSLLRCTGCCGDENLHCVPVETANVTMQLLKIRSGDRPSYVELTFSQHVRCECRPLREKMKPERCGDAVPRR

Assays:
[1] = target: high-affinity receptors for VEGF in HUVECs; assay: cell-based or functional assay
[2] = target: Flt-1 VEGF receptor (human (on HUVEC)) (UniProt P17948); assay: cell-based or functional assay
UniProt P17948, sequence (P17948 27-1338): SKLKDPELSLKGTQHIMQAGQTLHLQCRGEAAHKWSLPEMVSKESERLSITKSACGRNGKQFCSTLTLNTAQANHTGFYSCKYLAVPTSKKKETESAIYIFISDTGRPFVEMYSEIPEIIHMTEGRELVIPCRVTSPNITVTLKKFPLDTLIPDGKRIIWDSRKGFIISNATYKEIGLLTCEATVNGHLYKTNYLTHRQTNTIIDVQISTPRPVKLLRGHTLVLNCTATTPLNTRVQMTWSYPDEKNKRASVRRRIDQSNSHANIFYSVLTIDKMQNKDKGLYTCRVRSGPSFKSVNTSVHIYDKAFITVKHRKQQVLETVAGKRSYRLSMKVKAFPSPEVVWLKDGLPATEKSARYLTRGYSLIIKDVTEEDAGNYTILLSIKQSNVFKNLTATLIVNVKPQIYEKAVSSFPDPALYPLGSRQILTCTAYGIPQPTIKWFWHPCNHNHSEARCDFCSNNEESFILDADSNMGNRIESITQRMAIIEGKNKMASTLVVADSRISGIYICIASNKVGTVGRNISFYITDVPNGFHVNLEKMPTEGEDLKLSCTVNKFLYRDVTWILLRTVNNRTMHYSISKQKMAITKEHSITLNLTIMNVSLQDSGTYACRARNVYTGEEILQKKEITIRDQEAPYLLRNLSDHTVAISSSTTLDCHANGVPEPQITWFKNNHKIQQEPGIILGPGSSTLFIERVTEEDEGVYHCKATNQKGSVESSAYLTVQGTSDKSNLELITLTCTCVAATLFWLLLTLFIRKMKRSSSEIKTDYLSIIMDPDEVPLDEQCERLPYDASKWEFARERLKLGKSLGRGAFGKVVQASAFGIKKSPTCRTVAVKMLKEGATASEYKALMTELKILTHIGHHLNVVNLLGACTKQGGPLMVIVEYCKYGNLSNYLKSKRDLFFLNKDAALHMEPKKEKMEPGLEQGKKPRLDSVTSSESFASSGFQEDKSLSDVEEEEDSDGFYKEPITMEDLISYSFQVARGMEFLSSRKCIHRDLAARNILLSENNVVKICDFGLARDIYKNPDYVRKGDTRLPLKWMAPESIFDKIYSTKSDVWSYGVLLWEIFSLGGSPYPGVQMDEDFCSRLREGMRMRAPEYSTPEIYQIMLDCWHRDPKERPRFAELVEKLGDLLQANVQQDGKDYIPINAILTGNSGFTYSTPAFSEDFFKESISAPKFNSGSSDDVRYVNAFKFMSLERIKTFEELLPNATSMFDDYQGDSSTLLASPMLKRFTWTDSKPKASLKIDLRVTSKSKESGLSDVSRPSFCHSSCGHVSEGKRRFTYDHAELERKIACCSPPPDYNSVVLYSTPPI

| Molecule | arachidonic acid release from prelabelled HUVEC, concentration of maximum effect [1] | arachidonic acid release from prelabelled HUVEC, half-maximum effect [1] | mean increase in release of labelled arachidonic acid above basal level [1] | mean fold increase in 6-keto PGF1a above control, 60 min with 60 ng/ml P1GF [2] |
| --- | --- | --- | --- | --- |
| recombinant human VEGF (vascular endothelial growth factor) (from UniProt P15692 27-191) (ligand) | 10 to 20 ng/mL | 2.5 to 5 ng/mL | 1.6 fold |  |
| B1 |  |  |  | 1.3 fold |
